From ChEMBL document CHEMBL1141065, “Inhibition of mandelate racemase by the substrate-intermediate-product analogue 1,1-diphenyl-1-hydroxymethylphosphonate” (Bioorg Med Chem Lett, 2005) come the findings set out here.

Holding throughout (conditions): Pseudomonas putida
Substrate in series [1]: O=C([O-])[C@H]([O-])c1ccccc1.[Mg+2]
Description: Michaelis-Menten constant of mandelate racemase was determined at pH 8.7
Substrate in series [2]: O=C([O-])[C@H]([O-])c1ccccc1.[Mg+2]
This is another data set of the same source.
Description: Michaelis-Menten constant of mandelate racemase was determined at pH 7.5

Substrate in series [3]: O=C([O-])[C@H]([O-])c1ccccc1.[Mg+2]
Description: Michaelis-Menten constant of mandelate racemase was determined at pH 6.3
This is another data set of the same source.

B1: Mandelate racemase (Pseudomonas putida), P11444 (protein)
chain: MSEVLITGLRTRAVNVPLAYPVHTAVGTVGTAPLVLIDLATSAGVVGHSYLFAYTPVALKSLKQLLDDMAAMIVNEPLAPVSLEAMLAKRFCLAGYTGLIRMAAAGIDMAAWDALGKVHETPLVKLLGANARPVQAYDSHSLDGVKLATERAVTAAELGFRAVKTKIGYPALDQDLAVVRSIRQAVGDDFGIMVDYNQSLDVPAAIKRSQALQQEGVTWIEEPTLQHDYEGHQRIQSKLNVPVQMGENWLGPEEMFKALSIGACRLAMPDAMKIGGVTGWIRASALAQQFGIPMSSHLFQEISAHLLAATPTAHWLERLDLAGSVIEPTLTFEGGNAVIPDLPGVGIIWREKEIGKYLV
On to B1, for which the Michaelis constant (Km) is 2020 µM in series [1], 440 µM in series [2] and 950 µM in series [3].

A word on the Km: it is the concentration of substrate that gives half-maximal velocity.
